Laboratory results from patent US5726018.

Experiments:
[1] = biological target: pp32 (32 kDa murine nuclear phosphoprotein from A20 cells) (murine) (UniProt O35381)
[2] = biological target: pp35, dephosphorylated (murine)
[3] = biological target: pp32, dephosphorylated (murine) (UniProt O35381)
[4] = biological target: pp35 (35 kDa murine nuclear phosphoprotein purified from A20 cells) (murine)

| Substance | 32P incorporation (stoichiometry of phosphorylation) [1] [mol/mol] | 32P incorporation (stoichiometry of phosphorylation) [2] [mol/mol] | 32P incorporation (stoichiometry of phosphorylation) [3] [mol/mol] | 32P incorporation (stoichiometry of phosphorylation) [4] [mol/mol] |
| --- | --- | --- | --- | --- |
| protein kinase C from rat brain (80 kDa isoenzyme) | < 0.01 | < 0.01 | < 0.01 | < 0.01 |
| A 431 cell epidermal growth factor receptor kinase (from UniProt P00533) (enzyme) |  |  | < 0.01 |  |
| casein kinase II from bovine thymus (enzyme) | < 0.01 | 0.76 | 0.08 | 0.05 |
